These results are taken from PMC8748714 (2022).

For assay [1], the target named is exendin-P5. Nature of the assay: radioligand competition binding on whole cells. Conditions: parent: est. 0; read off a plot. Background: Displacement assays read how much labelled ligand stays bound in the presence of the test substance.
For assay [2], the target named is exendin-P5. Nature of the assay: radioligand competition binding on whole cells. Conditions: parent: est. 0; read off a plot. The source holds these as a separate data set.
Assay [3] concerns the target cMyc-GLP-1R K197A (human) (UniProt P43220).
Assay [4] deals with GLP-1R K202A (Homo sapiens).
Assay [5] has as its target GLP-1R E138A (Homo sapiens).
In assay [6] the target is GLP-1R S206A (Homo sapiens).
Assay [7] deals with GLP-1R L144A (Homo sapiens).
The target in assay [8] is GLP-1R S193A (Homo sapiens).
Assay [9] deals with cMyc-GLP-1R Y148A (human) (UniProt P43220).
Assay [10] addresses GLP-1R Q210A (Homo sapiens).
For assay [11], the target named is GLP-1R H212A (Homo sapiens).
For assay [12], the target named is cMyc-GLP-1R Y152A (human) (UniProt P43220).
The target of assay [13] is GLP-1R P137A (Homo sapiens).
For assay [14], the target named is GLP-1R L142A (Homo sapiens).
Assay [15] deals with cMyc-GLP-1R R190A (human) (UniProt P43220).
Assay [16] concerns the target GLP-1R Y205A (Homo sapiens).
In assay [17] the target is GLP-1R D198A (Homo sapiens).
The target in assay [18] is GLP-1R M204A (Homo sapiens).
In assay [19] the target is wild-type cMyc-GLP-1R (human) (UniProt P43220).
Assay [20] concerns the target GLP-1R Q211A (Homo sapiens).
Assay [21] deals with GLP-1R V194A (Homo sapiens).
Assay [22] addresses GLP-1R L141A (Homo sapiens).
Assay [23] addresses GLP-1R Y145A (Homo sapiens).
For assay [24], the target named is GLP-1R L201A (Homo sapiens).
Assay [25] has as its target GLP-1R S193A.
The target in assay [26] is GLP-1R Y145A.
Assay [27] has as its target GLP-1R Q210A.
For assay [28], the target named is GLP-1R L141A.
Assay [29] addresses GLP-1R P137A.
The target of assay [30] is cMyc-GLP-1R Y148A (human) (UniProt P43220). This is another data set of the same source.
Assay [31] deals with GLP-1R L201A.
The target in assay [32] is GLP-1R L144A.
Assay [33] concerns the target GLP-1R S206A.
Assay [34] has as its target GLP-1R Q211A.
In assay [35] the target is GLP-1R M204A.
In assay [36] the target is GLP-1R E138A.
Assay [37] addresses GLP-1R K202A.
Assay [38] addresses GLP-1R L142A.
Assay [39] concerns the target GLP-1R V194A.
Assay [40] addresses GLP-1R D198A.
Assay [41] addresses GLP-1R Y205A.
Assay [42] concerns the target GLP-1R H212A.
In assay [43] the target is exendin-4, P26349. Nature of the assay: radioligand competition binding on whole cells. Conditions: chain shown with the change;; parent: est. 0; read off a plot.

Read-outs that look alike come from different tables or passages of the source.

In the case of “wild-type cMyc-GLP-1R (from UniProt P43220) W297A”, the values for the log10 ratio in assay [1] and in assay [2] were -1.2 pIC50 ΔWT and -1.3 pIC50 ΔWT, respectively.

For exendin-4 (from UniProt P26349 48-87), the IC50 in assay [3] was determined as 25.1 nM; in [4], 1.91 nM; in assay [5], 0.661 nM; in assay [6], 2.19 nM; in [7], 0.741 nM; in [8], 1.38 nM. Besides, the IC50 came to 7.76 nM in assay [9]; 2.09 nM in assay [10]; 0.479 nM in assay [11]; 38 nM in assay [12]; 3.89 nM in assay [13]; 0.692 nM in assay [14]. In addition, the half-maximal inhibitory concentration (IC50) in assay [15] was 407 nM; in assay [16], 8.91 nM; in assay [17], 162 nM; in assay [18] it was 17.8 nM; in assay [19], 0.891 nM; in assay [20] it was 4.37 nM. Further, the IC50 stood at 11.7 nM in assay [21], 4.9 nM in [22], 0.617 nM in assay [23] and 3.47 nM in assay [24].

exendin-P5: the IC50 turned out to be 75.9 nM in assay [25]; 46.8 nM in assay [26]; 501 nM in assay [27]; 102 nM in [28]; 437 nM in assay [29]; 135 nM in assay [30]. The concentration for half-maximal inhibition (IC50) in assay [31] came out at 251 nM; in assay [32], 257 nM; in assay [33] it was 269 nM; in assay [34], 240 nM; in assay [35], 67.6 nM; in assay [36], 60.3 nM. Besides, the IC50 in assay [37] is 170 nM; in assay [38], 537 nM; in [39], 182 nM; in [40], 191 nM; in [41], 69.2 nM; in assay [42] it was 282 nM.

“wild-type cMyc-GLP-1R (from UniProt P43220) E387A”: the log10 ratio in [1] and in assay [2] was -1.1 pIC50 ΔWT throughout.

Turning to “wild-type cMyc-GLP-1R (from UniProt P43220) E364A”, the log10 ratio in [1] was -1 pIC50 ΔWT; in assay [2] it was -0.95 pIC50 ΔWT.

B1: wild-type cMyc-GLP-1R, P43220 K197A (protein)
chain: RPQGATVSLWETVQKWREYRRQCQRSLTEDPPPATDLFCNRTFDEYACWPDGEPGSFVNVSCPWYLPWASSVPQGHVYRFCTAEGLWLQKDNSSLPWRDLSECEESKRGERSSPEEQLLFLYIIYTVGYALSFSALVIASAILLGFRHLHCTRNYIHLNLFASFILRALSVFIADAALKWMYSTAAQQHQWDGLLSYQDSLSCRLVFLLMQYCVAANYYWLLVEGVYLYTLLAFSVLSEQWIFRLYVSIGWGVPLLFVVPWGIVKYLYEDEGCWTRNSNMNYWLIIRLPILFAIGVNFLIFVRVICIVVSKLKANLMCKTDIKCRLAKSTLTLIPLLGTHEVIFAFVMDEHARGTLRFIKLFTELSFTSFQGLMVAILYCFVNNEVQLEFRKSWERWRLEHLHIQRDSSMKPLKCPTSSLSSGATAGSSMYTATCQASCS
B1: in assay [43], the log10 ratio is -1.5 pIC50 ΔWT.

B2: wild-type cMyc-GLP-1R, P43220 W297A (protein)
chain: RPQGATVSLWETVQKWREYRRQCQRSLTEDPPPATDLFCNRTFDEYACWPDGEPGSFVNVSCPWYLPWASSVPQGHVYRFCTAEGLWLQKDNSSLPWRDLSECEESKRGERSSPEEQLLFLYIIYTVGYALSFSALVIASAILLGFRHLHCTRNYIHLNLFASFILRALSVFIKDAALKWMYSTAAQQHQWDGLLSYQDSLSCRLVFLLMQYCVAANYYWLLVEGVYLYTLLAFSVLSEQWIFRLYVSIGWGVPLLFVVPWGIVKYLYEDEGCATRNSNMNYWLIIRLPILFAIGVNFLIFVRVICIVVSKLKANLMCKTDIKCRLAKSTLTLIPLLGTHEVIFAFVMDEHARGTLRFIKLFTELSFTSFQGLMVAILYCFVNNEVQLEFRKSWERWRLEHLHIQRDSSMKPLKCPTSSLSSGATAGSSMYTATCQASCS
With B2, in [43], the log10 ratio is -1.5 pIC50 ΔWT.

B3: wild-type cMyc-GLP-1R, P43220 R190A (protein)
chain: RPQGATVSLWETVQKWREYRRQCQRSLTEDPPPATDLFCNRTFDEYACWPDGEPGSFVNVSCPWYLPWASSVPQGHVYRFCTAEGLWLQKDNSSLPWRDLSECEESKRGERSSPEEQLLFLYIIYTVGYALSFSALVIASAILLGFRHLHCTRNYIHLNLFASFILAALSVFIKDAALKWMYSTAAQQHQWDGLLSYQDSLSCRLVFLLMQYCVAANYYWLLVEGVYLYTLLAFSVLSEQWIFRLYVSIGWGVPLLFVVPWGIVKYLYEDEGCWTRNSNMNYWLIIRLPILFAIGVNFLIFVRVICIVVSKLKANLMCKTDIKCRLAKSTLTLIPLLGTHEVIFAFVMDEHARGTLRFIKLFTELSFTSFQGLMVAILYCFVNNEVQLEFRKSWERWRLEHLHIQRDSSMKPLKCPTSSLSSGATAGSSMYTATCQASCS
For B3, the log10 ratio in assay [43] was -2.6 pIC50 ΔWT.

As a reminder, the IC50 is the concentration that inhibits the measured activity by half. Lower therefore signals higher potency.
